Assay results taken from article PMC7305236.

Experiments:
[1] = molecular target: ACKR3 C-terminally tagged with SmBiT (human) (UniProt P25106)
[2] = molecular target: delta opioid receptor (DOR) C-terminally tagged with SmBiT (UniProt P41143)
[3] = molecular target: kappa opioid receptor (KOR) C-terminally tagged with SmBiT (UniProt P41145)
[4] = molecular target: mu opioid receptor (MOR) C-terminally tagged with SmBiT (UniProt P35372)
[5] = molecular target: atypical chemokine receptor ACKR3 (formerly CXCR7) (human) (UniProt P25106)
[6] = molecular target: ACKR3 C-terminally tagged with SmBiT (human) (UniProt P25106); remark: listed apart in the source
mouse ACKR3 (mouse) = mouse ACKR3 (mouse) (UniProt P56485)
mouse ACKR3 (mouse), sequence (P56485 whole entry): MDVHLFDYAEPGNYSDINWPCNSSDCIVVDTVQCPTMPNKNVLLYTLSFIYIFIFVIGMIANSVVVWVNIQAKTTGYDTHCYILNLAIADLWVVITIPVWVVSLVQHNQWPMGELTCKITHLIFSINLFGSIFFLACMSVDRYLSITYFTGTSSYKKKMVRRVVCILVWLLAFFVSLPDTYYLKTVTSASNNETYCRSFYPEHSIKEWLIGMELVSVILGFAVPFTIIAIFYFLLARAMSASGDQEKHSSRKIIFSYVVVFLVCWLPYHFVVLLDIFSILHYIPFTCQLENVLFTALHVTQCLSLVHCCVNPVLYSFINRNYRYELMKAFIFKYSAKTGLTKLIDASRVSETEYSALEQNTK

ACKR3 C-terminally tagged with SmBiT (human), sequence (P25106 whole entry): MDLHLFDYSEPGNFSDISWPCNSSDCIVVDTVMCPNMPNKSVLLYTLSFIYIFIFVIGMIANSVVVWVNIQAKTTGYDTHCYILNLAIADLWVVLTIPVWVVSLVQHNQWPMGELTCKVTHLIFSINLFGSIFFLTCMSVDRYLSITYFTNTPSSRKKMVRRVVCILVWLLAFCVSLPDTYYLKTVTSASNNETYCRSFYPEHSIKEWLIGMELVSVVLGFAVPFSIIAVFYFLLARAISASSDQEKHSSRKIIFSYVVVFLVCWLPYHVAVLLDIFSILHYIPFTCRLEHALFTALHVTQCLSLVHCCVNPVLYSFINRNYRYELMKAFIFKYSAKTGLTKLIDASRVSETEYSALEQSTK
atypical chemokine receptor ACKR3 (formerly CXCR7) (human), sequence (P25106 whole entry): as above
mCXCL12, sequence (P40224 22-93): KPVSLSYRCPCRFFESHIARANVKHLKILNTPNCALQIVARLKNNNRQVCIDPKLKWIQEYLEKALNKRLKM
CXCL12, sequence (P48061 22-93): as the sequence (P40224 22-93) above, with I18V, L70F counted along it

Row | Substance | β-arrestin-1 recruitment (NanoBiT, U87 cells): EC50 [1] [µM] | β-arrestin-1 recruitment (NanoBiT, U87 cells): EC50 [2] [µM] | β-arrestin-1 recruitment (NanoBiT, U87 cells): EC50 [3] [µM] | β-arrestin-1 recruitment (NanoBiT, U87 cells): EC50 [4] [µM] | also measured
1 | Nociceptin 1–13 (peptide) | 10 | – | – | – | –
2 | Dynorphin A 2–17 (peptide) | 2 | – | – | – | –
3 | Big Dynorphin (peptide) | 0.108 | 0.529 | 0.0191 | 0.652 | –
4 | Dynorphin A 2–13 (peptide) | 6 | – | – | – | –
5 | Dynorphin A 1–13 (peptide) | 0.0619 | 0.319 | 0.0025 | 2 | –
6 | Adrenorphin (peptide) | 0.0565 | 0.157 | 0.0435 | 0.0416 | –
7 | Endomorphin-2 (peptide) | – | – | – | 0.231 | –
8 | Dynorphin B (peptide) | 0.727 | 0.158 | 0.0109 | 2 | –
9 | adrenorphin-derived peptide yggfmrrv (Daa) | – | – | – | – | Supplementary Table 4: EC50 of β-arrestin-1 recruitment to ACKR3, U87 cells [5]: > 10 µM
10 | Dynorphin A (peptide) | 0.11 | 0.24 | – | 1.5 | –
11 | CXCL12 (from UniProt P48061 22-93) (ligand) | – | – | – | – | β-arrestin recruitment to ACKR3 (Fig. 4b): EC50 [6]: 0.0012 µM
12 | [Phe1Ψ(CH2-NH)-gly2]nociceptin-(1–13)-NH2 (peptide) | 2.97 | – | – | – | –
13 | β-endorphin (peptide) | – | 0.441 | – | – | –
14 | mCXCL12 (from UniProt P40224 22-93) (ligand) | – | – | – | – | Supplementary Table 6: EC50 of β-arrestin-1 recruitment to mACKR3, U87 cells (mouse ACKR3 (mouse)): 0.00332 µM
15 | Leumorphin (peptide) | 1.32 | 3 | 0.0214 | – | –
